For two substances, Percent of Inhibition results are on record in US20080213284A1.

For assay [1], the target named is receptor on VERO E6 cells (not identified in the filing).
For assay [2] the target is unchanged. Description: FACS competition against S2-Fc (330 ng/mL) on VERO E6 cells; agent at 10 µg/mL.
Assay [3] has the same target. Description: FACS competition against S2-Fc (330 ng/mL) on VERO E6 cells; agent at 1 µg/mL.

Like-named read-outs stand apart in the source and are kept apart here.

Negative control (blocking agent): the Percent of Inhibition in assay [1], in assay [2] and in assay [3] was 0% throughout.
Take “recombinant RBD2 (from UniProt P59594 284-735)”: the Percent of Inhibition in assay [1], in assay [2] and in assay [3] was 100% throughout.
